Measurements reported in US20140302035A1 (MERRIMACK PHARMACEUTICALS, published 2014).
Substitutions are numbered along the chain they refer to.

B1: Ab#5 (bispecific antibody, human IgG1, kappa)
heavy: QLQLQESGPGLVKPSETLSLTCTVSGGSISSSVYYWSWIRQPPGKGLEWIGVIYPSGNTYYSPSLKSRVTISVDTSKNQFSLKLSSVTAADTAVYYCARTIYDLFDIWGQGTMVTVSSASTKGPSVFPLAPSSKSTSGGTAALGCLVKDYFPEPVTVSWNSGALTSGVHTFPAVLQSSGLYSLSSVVTVPSSSLGTQTYICNVNHKPSNTKVDKKVEPKSCDKTHTCPSCPAPEFLGGPSVFLFPPKPKDTLMISRTPEVTCVVVDVSQEDPEVQFNWYVDGVEVHNAKTKPREEQFNSKYRVVSVLTVLHQDWLNGKEYKCKVSNKGLPSSIEKTISKAKGQPREPQVYTLPPSREEMTKNQVSLSCAVKGFYPSDIAVEWESNGQPENNYKTTPPVLDSDGSFFLVSKLTVDKSRWQQGNVFSCSVMHEALHNHYTQKSLSLSKSCDKTGGGGSGGGGSGGGGSGGGGSGGGGSGGGGSGGGGSGGGGSCPSCPAPEFLGGPSVFLFPPKPKDTLMISRTPEVTCVVVDVSQEDPEVQFNWYVDGVEVHNAKTKPREEQFNSDYRVVSVLTVLHQDWLNGKEYKCKVSNKGLPSSIEKTISKAKGQPREPQVYTLPPSREEMTKNQVSLWCLVKGFYPSDIAVEWESNGQPENNYKTTPPVLDSDGSFFLYSKLTVDKSRWQQGNVFSCSVMHEALHNHYTQKSLSLSGECGGGGSGGGGSDIVMTQSPLSLPVTPGEPASISCRSTKSLLHSNGITYLYWYLQKPGQSPQLLIYQMSNLASGVPDRFSSSGSGTDFTLKISRVEAEDEGVYYCAQNLEIPRTFGGGTKLEIKRTGGGGSGGGGSGGGGSGGGGSQVQLVQSGAEVKKPGESVKISCKASGYTFTNYGMNWVRQAPGQGLKWMGWINTYTGESTYADDFKGRFAFSLDTSASTAYLQLSSLRSEDTAVYFCARFAIKGDYWGQGTLVTVSS
light: DIQMTQSPSSVSASVGDRVTITCRASQGISSWLAWYQQKPGKAPKLLIYAASSLQSGVPSRFSGSGSGTDFTLTISSLQPEDFATYYCLQANSFPPTFGGGTKVEIKRTVAAPSVFIFPPSDEQLKSGTASVVCLLNNFYPREAKVQWKVDNALQSGNSQESVTEQDSKDSTYSLSSTLTLSKADYEKHKVYACEVTHQGLSSPVTKSFNRGEC
notes: Anti-c-Met Fab / tandem Fc / anti-EpCAM scFv TFcBA; also called Antibody #5
B2: Ab#7 (bispecific antibody, human IgG1, kappa)
heavy: B1 heavy with N756D, M779L, G828C, G901C
light: B1 light
notes: Anti-c-Met Fab / tandem Fc / anti-EpCAM scFv TFcBA; also called Antibody #7
B3: Ab#13 (bispecific antibody)
heavy: QLQLQESGPGLVKPSETLSLTCTVSGGSISSSVYYWSWIRQPPGKGLEWIGVIYPSGNTYYSPSLKSRVTISVDTSKNQFSLKLSSVTAADTAVYYCARTIYDLFDIWGQGTMVTVSSASTKGPSVFPLAPSSKSTSGGTAALGCLVKDYFPEPVTVSWNSGALTSGVHTFPAVLQSSGLYSLSSVVTVPSSSLGTQTYICNVNHKPSNTKVDKKVEPKSCDKTHTCPSCPAPEFLGGPSVFLFPPKPKDTLMISRTPEVTCVVVDVSQEDPEVQFNWYVDGVEVHNAKTKPREEQFNSKYRVVSVLTVLHQDWLNGKEYKCKVSNKGLPSSIEKTISKAKGQPREPQVYTLPPSREEMTKNQVSLSCAVKGFYPSDIAVEWESNGQPENNYKTTPPVLDSDGSFFLVSKLTVDKSRWQQGNVFSCSVMHEALHNHYTQKSLSLSKSCDKTGGGGSGGGGSGGGGSGGGGSGGGGSGGGGSGGGGSGGGGSCPSCPAPEFLGGPSVFLFPPKPKDTLMISRTPEVTCVVVDVSQEDPEVQFNWYVDGVEVHNAKTKPREEQFNSDYRVVSVLTVLHQDWLNGKEYKCKVSNKGLPSSIEKTISKAKGQPREPQVYTLPPSREEMTKNQVSLWCLVKGFYPSDIAVEWESNGQPENNYKTTPPVLDSDGSFFLYSKLTVDKSRWQQGNVFSCSVMHEALHNHYTQKSLSLSGECGGGGSGGGGSDIVMTQSPSSLSASVGDKATITCRSTKSLLHSNGITYLYWYLQKPGKAPKLLIYQMSNLASGVPDRFSSSGSGTEFTLTISSVQPEDEGTYYCAQNLEIPRTFGQGTKLEIKRTPSHNSHQVPSAGGPTANSGTSGSQVQLQQSGGGLVKPGESVKISCAASGYTFTNYGMNWVKQAPGKGLKWMGWINTYTGESTYADDFKGRFTFSLETSASAAYLQINSLRPEDTAVYFCARFAIKGDYWGQGTTVTVSS
light: B1 light
notes: Anti-c-Met Fab / tandem Fc / anti-EpCAM scFv TFcBA; also called Antibody #13
B4: Onartuzumab-39EGY4-panitumumab (bispecific antibody)
heavy: EVQLVESGGGLVQPGGSLRLSCAASGYTFTSYWLHWVRQAPGKGLEWVGMIDPSNSDTRFNPNFKDRFTISADTSKNTAYLQMNSLRAEDTAVYYCATYRSYVTPLDYWGQGTLVTVSSASTKGPSVFPLAPSSKSTSGGTAALGCLVKDYFPEPVTVSWNSGALTSGVHTFPAVLQSSGLYSLSSVVTVPSSSLGTQTYICNVNHKPSNTKVDKKVEPKSCDKTHTCPSCPAPEFLGGPSVFLFPPKPKDTLMISRTPEVTCVVVDVSQEDPEVQFNWYVDGVEVHNAKTKPREEQFNSKYRVVSVLTVLHQDWLNGKEYKCKVSNKGLPSSIEKTISKAKGQPREPQVYTLPPSREEMTKNQVSLSCAVKGFYPSDIAVEWESNGQPENNYKTTPPVLDSDGSFFLVSKLTVDKSRWQQGNVFSCSVMHEALHNHYTQKSLSLSKSCDKTGGGGSGGGGSGGGGSGGGGSGGGGSGGGGSGGGGSGGGGSCPSCPAPEFLGGPSVFLFPPKPKDTLMISRTPEVTCVVVDVSQEDPEVQFNWYVDGVEVHNAKTKPREEQFNSDYRVVSVLTVLHQDWLNGKEYKCKVSNKGLPSSIEKTISKAKGQPREPQVYTLPPSREEMTKNQVSLWCLVKGFYPSDIAVEWESNGQPENNYKTTPPVLDSDGSFFLYSKLTVDKSRWQQGNVFSCSVMHEALHNHYTQKSLSLSGECGGGGSGGGGSQVQLQESGPGLVKPSETLSLTCTVSGGSVSSGDYYWTWIRQSPGKGLEWIGHIYYSGNTNYNPSLKSRLTISIDTSKTQFSLKLSSVTAADTAIYYCVRDRVTGAFDIWGQGTMVTSSASTGGGGSGGGGSGGGGSGGGGSDIQMTQSPSSLSASVGDRVTITCQASQDISNYLNWYQQKPGKAPKLLIYDASNLETGVPSRFSGSGSGTDFTFTISSLQPEDEATYFCQHFDHLPLAFGGGTKVEIKRT
light: DIQMTQSPSSLSASVGDRVTITCKSSQSLLYTSSQKNYLAWYQQKPGKAPKLLIYWASTRESGVPSRFSGSGSGTDFTLTISSLQPEDFATYYCQQYYAYPWTFGQGTKVEIKRTVAAPSVFIFPPSDEQLKSGTASVVCLLNNFYPREAKVQWKVDNALQSGNSQESVTEQDSKDSTYSLSSTLTLSKADYEKHKVYACEVTHQGLSSPVTKSFNRGEC
notes: Anti-c-Met Fab / TFc 39E glycoform 4 / anti-EGFR panitumumab scFv
B5: Onartuzumab (antibody)
chain 1: not shown
chain 2: B4 light
chain 3: not shown

What was measured:
[1] = target: T1, Human EpCAM-Fc-his tagged (human); assay: BLI (ForteBio Octet), antibody loaded on Protein A tips, recombinant polyhistidine-tagged EpCAM-Fc in solution, 1:1 model
T1 construct: also called Recombinant polyhistidine-tagged EpCAM-Fc; recombinant EpCAM
Experimental: (§1) For Octet analysis, all reagents and samples are brought to room temperature. Protein A sensor tips (ForteBio, #18-5010) are hydrated for 10 minutes in 1×PBS. Assay steps include: 1-2 minutes of equilibration in 1×PBS, 4 minutes of antibody loading (concentration of 50 μg/ml in 1×PBS), 1-2 minutes of baseline stabilization, 4 minutes of antibody:antigen association, and 4 minutes of antibody:antigen dissociation. 1×PBS is used as the matrix throughout. Data are analyzed with Octet Data Analysis software, processed, and fit to a 1:1 binding model to determine kinetic parameters (Kd, kₒₙ and kdiss).
Table A-2 describes approximate EpCAM binding affinity and dissociation rate as determined for Ab#1, Ab#2, Ab#3, Ab#4, Ab#5, Ab#6, Ab#7, Ab#8, Ab#9, Ab#10, Ab#11, Ab#12, and Ab#13.

cMet-his [2] = target: T2, cMet-his (Homo sapiens (Human), UniProt P08581 25-933); assay: BLI (ForteBio Octet), antibody loaded on Protein A tips, recombinant polyhistidine-tagged c-Met in solution, 1:1 model
T2 construct: also called his tagged cMET; Recombinant polyhistidine-tagged c-Met
Experimental: as §1
Table A-4 describes approximate c-Met binding affinity and dissociation rate as determined for Ab#5 and Ab#7.

[3] = target: T1, Human EpCAM-Fc-his tagged; assay: BLI (ForteBio Octet), repeat analysis, antibody on Protein A tips, recombinant polyhistidine-tagged EpCAM-Fc in solution, 1:1 model
Experimental: as §1
Table A-3 describes a repeat analysis for Ab#5, Ab#7, and Ab#13. For the repeat experiment, Kd and kdiss values for Ab#5, Ab#7, and Ab#13 are substantially equivalent to those determined for Ab#5, Ab#7, and Ab#13 in the initial experiment.

cMet-his [4] = target: T2, cMet-his; assay: BLI (ForteBio Octet), antibody loaded on Protein A tips, his tagged cMET in solution, 1:1 model
Experimental: Protocol: All reagents are equilibrated and samples are brought to room temperature. Protein A sensor tips (Fortebio, #18-5010) are hydrated for 10 min in 1×PBS. Kinetic assays are run using the Octet software and procedure per manufacturer's instruction. Assay steps typically include: 1-2 min of equilibration in 1×PBS, 4 min of antibody loading (conc: 50 μg/mL in 1×PBS), 1-2 min of baseline stabilization, 4 min of antibody:antigen association, and 4 min of antibody:antigen dissociation. 1×PBS is used as the matrix throughout. Data are analyzed with Octet Data Analysis software, processed, and fit to the curve using 1:1 binding model to determine kinetic parameters (Kₐ, Kₒₙ and Koff)

T1 sequence (chain, as listed by the source): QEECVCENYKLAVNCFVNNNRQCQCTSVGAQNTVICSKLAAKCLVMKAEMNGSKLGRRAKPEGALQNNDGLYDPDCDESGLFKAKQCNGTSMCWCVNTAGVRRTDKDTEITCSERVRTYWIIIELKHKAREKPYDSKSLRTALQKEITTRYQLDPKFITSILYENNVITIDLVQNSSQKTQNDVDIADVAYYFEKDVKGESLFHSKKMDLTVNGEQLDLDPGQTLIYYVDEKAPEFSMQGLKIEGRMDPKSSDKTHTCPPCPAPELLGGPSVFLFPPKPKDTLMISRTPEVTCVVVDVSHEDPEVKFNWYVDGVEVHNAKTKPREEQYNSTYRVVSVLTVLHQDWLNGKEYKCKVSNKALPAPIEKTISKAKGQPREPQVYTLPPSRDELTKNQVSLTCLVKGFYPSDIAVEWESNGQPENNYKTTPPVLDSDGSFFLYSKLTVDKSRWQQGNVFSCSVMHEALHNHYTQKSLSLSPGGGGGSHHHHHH

| Binder | Kd [1] | koff [1] | Kd (cMet-his [2]) | koff (cMet-his [2]) | Kd [3] | koff [3] | Kd (cMet-his [4]) |
| --- | --- | --- | --- | --- | --- | --- | --- |
| B1 | 3.57 nM | 0.000346 s⁻¹ | 3.4 nM | 0.000588 s⁻¹ | 2.67 nM | 0.000194 s⁻¹ |  |
| B2 | 25.9 nM | 0.00132 s⁻¹ | 2.81 nM | 0.000554 s⁻¹ | 15.4 nM | 0.00137 s⁻¹ |  |
| B3 | 4.98 nM | 0.00036 s⁻¹ |  |  | 4.69 nM | 0.000323 s⁻¹ |  |
| B4 |  |  |  |  |  |  | 1.6 nM |
| B5 |  |  |  |  |  |  | 1.2 nM |
